Patent publication US20250026837A1 (CANCURE, published 2025)
Blank lines part the entries; values can stand above or below the binder they belong to.

Columns and labels:
[1] = target: T1, MICB (antigen in solution in the BLI assay) (UniProt Q29980 24-297, limits assumed); assay: BLI, Octet Red96; antibody captured on biosensor, MICB dilution series in solution; 1:1 model, global fit; Ab-K (humanized), FIG. 2B
T1 construct: also called antigen (MICB)
T1 sequence (looked up): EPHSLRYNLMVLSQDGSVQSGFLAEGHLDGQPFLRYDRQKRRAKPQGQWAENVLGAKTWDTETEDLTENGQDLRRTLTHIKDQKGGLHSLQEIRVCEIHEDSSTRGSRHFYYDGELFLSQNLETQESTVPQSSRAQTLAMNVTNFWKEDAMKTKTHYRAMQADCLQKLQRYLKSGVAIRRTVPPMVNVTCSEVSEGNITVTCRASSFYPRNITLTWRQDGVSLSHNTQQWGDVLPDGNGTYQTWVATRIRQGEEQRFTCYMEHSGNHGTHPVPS
Protocol: (§1) Bio-layer interferometry (BLI) was performed using Octet Red96 (ForteBio) generally as described by Kamat and Rafique, Analytical Biochemistry 536: 16-31 (2017). Antibody samples, Ab-K and Ab-J (chimeric B10G5), were captured on kinetic grade biosensors. The loaded biosensors were then dipped into a dilution series of samples containing antigen (MICB) serially diluted in PBS buffer with 0.1% BSA, 0.02% Tween-20, pH 7.2. […] Kinetic analysis was performed using a 1:1 binding model and global fitting with mass transport limitation using the Scrubber software.

[2] = target: T1, MICB (antigen in solution in the BLI …); assay: BLI, Octet Red96; antibody captured on biosensor, MICB dilution series in solution; 1:1 model, global fit; Ab-J (chimeric B10G5), FIG. 2A
Protocol: as §1

Kd [1]: 7.2 nM
B1: antibody K (Ab-K; humanized HC2 / humanized LC3, human IgG1) (antibody, V domains shown)
VH: EVQLQESGPGLVKPSQTLSLTCTVSGYSITSDYAWNWIRQPPGKGLEWIGYISYSGSTNYNPSLKSRVTISRDTSKNQFSLKLSSVTAADTAVYYCARGGTYFDYWGQGTLVTVSS
VL: DVVMTQSPSTLSASVGDRVTITCRASAHINNWLAWYQQKPGKAPKLLISDATSLESGVPSRFSGSGSGKEYTLTISSLQPDDFATYYCQHYWSTPWTFGQGTKVEIKR
notes: also called K (HC2/LC3)

Kd [2]: 12.1 nM
B2: antibody J (Ab-J; chimeric B10G5, parental HC / parental LC with human IgG1 Fc region) (antibody, V domains shown)
VH: EVQLEESGPGLVKPSQSLSLTCTVTGYSITSDYAWNWIRQFPGNKLEWMGYISYSGSTNYNPSLKSRISITRDTSKNQFFLQLNSVITEDTATYYCARGGTYFDYWGQGTTLTVSS
VL: DIVLTQTTSYLSVSLGGRVTIACKASAHINNWLAWYQQKPGNAPRLLISDATSLETGVPSRFSGSGSGKDYTLSITSLQTEDVATYYCQHYWSTPWTFGGGTKLEIK
notes: also called chimeric antibody B10G5
